This data set concerns the molecule itself. As to the kind of experiment: crystal structure; anti-IL-17A-76 and IL-17A mixed at molar ratio 2.3:1, complex isolated on Superdex G-75; vapor diffusion at 297 K; 2.85 A; molecular replacement with 4HSA and 6QKD.

B1: IL-17A (interleukin-17A) without N-signal sequence, double mutation N68D/C129S (ligand, UniProt Q16552 24-155, looked up)
chain: GITIPRNPGCPNSEDKNFPRTVMVNLNIHNRNTNTNPKRSSDYYDRSTSPWNLHRNEDPERYPSVIWEAKCRHLGCINADGNVDYHMNSVPIQQEILVLRREPPHSPNSFRLEKILVSVGCTCVTPIVHHVA
notes: Dimer in the crystal (monomer in the asymmetric unit, molecules A and A*); also called the cytokine
Turning to B1, the binding result was “binds”.
